# Source: PMC7305210, “Mitochondria-adaptor TRAK1 promotes kinesin-1 driven transport in crowded environments” (Nature Communications, 2020)
# B1: GFP-labelled KIF5B∆ (KIF5B without the inhibitory domain, amino acids 906-963) (domain or fragment, human, UniProt P33176 1-905, looked up)
# chain: MADLAECNIKVMCRFRPLNESEVNRGDKYIAKFQGEDTVVIASKPYAFDRVFQSSTSQEQVYNDCAKKIVKDVLEGYNGTIFAYGQTSSGKTHTMEGKLHDPEGMGIIPRIVQDIFNYIYSMDENLEFHIKVSYFEIYLDKIRDLLDVSKTNLSVHEDKNRVPYVKGCTERFVCSPDEVMDTIDEGKSNRHVAVTNMNEHSSRSHSIFLINVKQENTQTEQKLSGKLYLVDLAGSEKVSKTGAEGAVLDEAKNINKSLSALGNVISALAEGSTYVPYRDSKMTRILQDSLGGNCRTTIVICCSPSSYNESETKSTLLFGQRAKTIKNTVCVNVELTAEQWKKKYEKEKEKNKILRNTIQWLENELNRWRNGETVPIDEQFDKEKANLEAFTVDKDITLTNDKPATAIGVIGNFTDAERRKCEEEIAKLYKQLDDKDEEINQQSQLVEKLKTQMLDQEELLASTRRDQDNMQAELNRLQAENDASKEEVKEVLQALEELAVNYDQKSQEVEDKTKEYELLSDELNQKSATLASIDAELQKLKEMTNHQKKRAAEMMASLLKDLAEIGIAVGNNDVKQPEGTGMIDEEFTVARLYISKMKSEVKTMVKRCKQLESTQTESNKKMEENEKELAACQLRISQHEAKIKSLTEYLQNVEQKKRQLEESVDALSEELVQLRAQEKVHEMEKEHLNKVQTANEVKQAVEQQIQSHRETHQKQISSLRDEVEAKAKLITDLQDQNQKMMLEQERLRVEHEKLKATDQEKSRKLHELTVMQDRREQARQDLKGLEETVAKELQTLHNLRKLFVQDLATRVKKSAEIDSDDTGGSAAQKQKISFLENNLEQLTKVHKQLVRDNADLRCELPKLEKRLRATAERVKALESALKEAKENASRDRKRYQQEVDRIKEA
# notes: Constitutively active construct; also called KIF5B∆-GFP; source: SF9 insect cells (FlexiBAC baculovirus), purified (Ni-NTA, 6xHis cleaved by 3C PreScission protease, second Ni-NTA); not shown: GFP, C-terminal, kept; 6xHis, C-terminal, cleaved
# B2: mCherry-labelled full-length TRAK1 (natural protein, UniProt Q9UPV9-1 1-953, looked up)
# chain: MALVFQFGQPVRAQPLPGLCHGKLIRTNACDVCNSTDLPEVEIISLLEEQLPHYKLRADTIYGYDHDDWLHTPLISPDANIDLTTEQIEETLKYFLLCAERVGQMTKTYNDIDAVTRLLEEKERDLELAARIGQSLLKKNKTLTERNELLEEQVEHIREEVSQLRHELSMKDELLQFYTSAAEESEPESVCSTPLKRNESSSSVQNYFHLDSLQKKLKDLEEENVVLRSEASQLKTETITYEEKEQQLVNDCVKELRDANVQIASISEELAKKTEDAARQQEEITHLLSQIVDLQKKAKACAVENEELVQHLGAAKDAQRQLTAELRELEDKYAECMEMLHEAQEELKNLRNKTMPNTTSRRYHSLGLFPMDSLAAEIEGTMRKELQLEEAESPDITHQKRVFETVRNINQVVKQRSLTPSPMNIPGSNQSSAMNSLLSSCVSTPRSSFYGSDIGNVVLDNKTNSIILETEAADLGNDERSKKPGTPGTPGSHDLETALRRLSLRRENYLSERRFFEEEQERKLQELAEKGELRSGSLTPTESIMSLGTHSRFSEFTGFSGMSFSSRSYLPEKLQIVKPLEGSATLHHWQQLAQPHLGGILDPRPGVVTKGFRTLDVDLDEVYCLNDFEEDDTGDHISLPRLATSTPVQHPETSAHHPGKCMSQTNSTFTFTTCRILHPSDELTRVTPSLNSAPTPACGSTSHLKSTPVATPCTPRRLSLAESFTNTRESTTTMSTSLGLVWLLKERGISAAVYDPQSWDRAGRGSLLHSYTPKMAVIPSTPPNSPMQTPTSSPPSFEFKCTSPPYDNFLASKPASSILREVREKNVRSSESQTDVSVSNLNLVDKVRRFGVAKVVNSGRAHVPTLTEEQGPLLCGPPGPAPALVPRGLVPEGLPLRCPTVTSAIGGLQLNSGIRRNRSFPTMVGSSMQMKAPVTLTSGILMGAKLSKQTSLR
# notes: TRAK1 (trafficking kinesin protein 1), cDNA KIAA1042 from the Kazusa DNA Research Institute; 953 residues by the printed region 636-953; also called mCherry-TRAK1; trafficking kinesin protein 1; source: HEK293T cells, transfected, purified (StrepTactinXT, eluted by TEV cleavage of the N-terminal tag, Superose 6 SEC); not shown: mCherry, N-terminal, kept; TwinStrep-FLAG-Halo, N-terminal, cleaved
# Tests used:
# [1] = target: the molecule itself; assay: single-molecule fluorescence intensity distributions (TIRF) with labelling efficiencies from SEC absorption; intensity distributions of KIF5B∆-mCherry compared with mCherry-TRAK1 in the motility experiments; labelling efficiencies about 22% and about 88%
# [2] = target: B2; assay: single-molecule TIRF microscopy, two-colour co-movement on immobilised microtubules; KIF5B construct and 175 nM TRAK1 construct pre-incubated 10 min on ice, flushed onto bare immobilised microtubules in motility buffer with 1 mM Mg-ATP; room temperature; for the complexes traces of the mCherry-TRAK1 channel analysed; conditions: both partners purified
# [3] = target: B2; assay: TIRF microscopy, reconstituted transport of mitochondria on immobilised microtubules; 2 nM unlabeled KIF5B∆, 100 nM mCherry-TRAK1 and 10 µg isolated mitochondria-GFP (4T1 cells) pre-incubated on ice, flushed onto immobilised microtubules; room temperature; conditions: both partners purified
# [4] = target: B1; assay: single-molecule fluorescence intensity distributions (TIRF) with labelling efficiencies from SEC absorption; intensity distributions of KIF5B∆-mCherry compared with mCherry-TRAK1 in the motility experiments; labelling efficiencies about 22% and about 88%; conditions: both partners purified
Binder,stoichiometry N [1],binding result [2],binding result [3],stoichiometry N [4]
B1,2,binds,,
"unlabelled KIF5B∆ (domain or fragment, human, UniProt P33176 1-905, looked up, KIF5B, kinesin-1 heavy chain, human, amino acids 1-905; The methods describe only vectors with a C-terminal fluorescent tag; also called recombinant KIF5B∆; source: SF9 insect cells (all KIF5B constructs), purified) MADLAECNIKVMCRFRPLNESEVNRGDKYIAKFQGEDTVVIASKPYAFDRVFQSSTSQEQVYNDCAKKIVKDVLEGYNGTIFAYGQTSSGKTHTMEGKLHDPEGMGIIPRIVQDIFNYIYSMDENLEFHIKVSYFEIYLDKIRDLLDVSKTNLSVHEDKNRVPYVKGCTERFVCSPDEVMDTIDEGKSNRHVAVTNMNEHSSRSHSIFLINVKQENTQTEQKLSGKLYLVDLAGSEKVSKTGAEGAVLDEAKNINKSLSALGNVISALAEGSTYVPYRDSKMTRILQDSLGGNCRTTIVICCSPSSYNESETKSTLLFGQRAKTIKNTVCVNVELTAEQWKKKYEKEKEKNKILRNTIQWLENELNRWRNGETVPIDEQFDKEKANLEAFTVDKDITLTNDKPATAIGVIGNFTDAERRKCEEEIAKLYKQLDDKDEEINQQSQLVEKLKTQMLDQEELLASTRRDQDNMQAELNRLQAENDASKEEVKEVLQALEELAVNYDQKSQEVEDKTKEYELLSDELNQKSATLASIDAELQKLKEMTNHQKKRAAEMMASLLKDLAEIGIAVGNNDVKQPEGTGMIDEEFTVARLYISKMKSEVKTMVKRCKQLESTQTESNKKMEENEKELAACQLRISQHEAKIKSLTEYLQNVEQKKRQLEESVDALSEELVQLRAQEKVHEMEKEHLNKVQTANEVKQAVEQQIQSHRETHQKQISSLRDEVEAKAKLITDLQDQNQKMMLEQERLRVEHEKLKATDQEKSRKLHELTVMQDRREQARQDLKGLEETVAKELQTLHNLRKLFVQDLATRVKKSAEIDSDDTGGSAAQKQKISFLENNLEQLTKVHKQLVRDNADLRCELPKLEKRLRATAERVKALESALKEAKENASRDRKRYQQEVDRIKEA",,,binds,
B2,2,,,1 TRAK1 dimer per KIF5B dimer
